Reference: the nanobody polyreactivity screen of Harvey et al. (2022)

test: yeast display, Sf9 membrane polyspecificity reagent, FACS + sequencing; frameworks hold sequencing errors
Procedure, shortened: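 Sorting gates, low and high (top ~1%), were placed on anti-HA fluorescence to track expression and on streptavidin fluorescence to track reagent binding. A clone's polyreactivity label is taken from the gate it came out of. The reagent was 10% biotinylated, detergent-solubilized Sf9 membrane, applied for 1 hour at 4 °C to galactose-induced yeast display cells.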

Sequence | polyreactivity (PSR sort gate)
QVQLVESGGGLVQAGGSLRLSCADSGSTPVYAMGWYIQAPGKERELVAAIRRRASSTYYADSVKGRLTISRDNAKNTVYLQMNSLKPEDTAVYYCAVGRLNGVLLGYWGQGTQVTVSS | high polyreactivity
QVQLVESGGGLVQAGGSLRLSCAASGLIFPVYTLGWYRPAPGKERELVAAITSSGDSTYYADSVKGRFTISRDNAKNTVYVQMNSLKPEDTAVYYCAARLVEKYGGTYSFDYWGQGTQVTVSS | low polyreactivity
QVQLVESGGGLVQAGGSLRLSCAASGFIFGYNAMGWYRQAPGKERELVATISWSGGSTYYADSVKGRFTISRDNAKNTVYFQMNSLKPEDTAVYYCAAEGWERLGCVSWVTVDYWGQGTQVTVSS | low polyreactivity
QVQLVESGGGLFQAGGSLRISCAPSGFISHFYAMAWYRHAPGKEREFVARISYSVGSTYYADSVKGRFTISRDNAKNTVYVQMNSLKPEDTAVYDCNAGPQYDVHEYYYWGQGTQVTGSS | low polyreactivity
QVQLVESGGGLVQAGGSLRLSCAASGRTFVSNAMGWYRQAPGKERELVAAISVRGGRTYYADSVKGRFTISRDNAKNTVYLQMNSLKPEDTAVYYCNAVYRTYEYYWGQGTQVTVSS | high polyreactivity
QVQLVESGGGLVQAGGSLRLSCAASGSIFGYNAMGWYRQAPGKEREFVAAISWSGGRTYYADSVKGRFTISRDNAKYTVYLQMNSLKPEDTAVYYCAAPSRPAPRFDYWGQGTQVTVSS | low polyreactivity
QVQLVESGGGLVQAGGSLRLSCAASGRTFRAYAMGWYRQAPGKETELVASISRRGGSTYYADSVKGRFTISRDNAKNTVYLQMNSLKPEDSAVYYCAASDNYLQYDYWGQGTQVTVSS | high polyreactivity
QVQLVESGGGLVQAGGSLRLSCAASGFTVSAYALGWYRQAPGKERELVAAISTRGGSTRYADSVKGRFTISRDNAKNTVYLQMNSLKPEDTAVYYCAADTRSFYRYDYWGQGTQVTVSS | high polyreactivity
QVQLVESGGGLVQAGGSLRLSCAASGITFGRKTMGWYRQAPGKERELVAAIDSGGNTYADSVKGRFTISRDNAKNTVYLQMNSLKPEDTAVYYCAVDGGVFSSYGYWGQGTLVTVSS | low polyreactivity
QVQLVESGGGLVQAGGSLRLSCAASGSTFDHYTMGWYRPAPGKERELVAAINRIGDSTYYADSVKGRFTISRDNAKNTVYLQMNSLKPEDTAVYYCAARHVPRFNKYGYWGQGTQVTVSS | high polyreactivity
QVQLVESGGGLVQAGGSLRLSCAASGRIKDNVMGWYRQAPGKERELVAAITRSAGRTYYADSVKGRFTISRDNAKNTVYLQMNSLKPEDTAVYYCAAQAERYGYEYWGQGTQVTVSS | low polyreactivity
QVQLVESGGGLVQAGGSLRLSCAASGRTFSVNAMGWYRQAPGKERELVAAISWDGGSTYYADSVKGRFTISRDNAKNTVYLQMNSLKPEDTAVYYCNADYSIPGYYWPYDYWGQGTQVTVSS | low polyreactivity
QVQLVESGGGLVQAGGSLRLSCAASGSTFKRNAMGWYRQAPGIERELVAAISYSGGSTYYADSMKGRFTISRDNAKNTVYLQMNSLKPEDTAVYYCWGPGTQVTVSS | low polyreactivity
QVQLVESGGGLVQAGGSQRLSCAASGRIFPGNAMGWYRQAPGKERELVAAIRWSGGSTYYADSVKGRFTISRDNAKNTVYLQMNSLKPEDTAVFYCAKDRGSVFKRKYYYWGQGTQVTVSS | low polyreactivity
QVQIVESGGGLVQAGGSLRLSGAASGLIFKYYDMGWSRQAPGKERELVASISRSGGRTYYADSVMGRFTISRDNAMNTVYLQMNSLKPEDTAVYYCNADTWLYWDGDDYWGQGTQVTVSS | high polyreactivity
QVQLVESGGGLVQAGGSLRLSCAASGITIYYNAMGWYRQAPGKARELVAAITQSGGSTFYADSVKGRFTISRDNAKNTVYLQMNSLKPEDTAVYYWGQGTQVTVSS | low polyreactivity
QVQLVESGGGLVQAGGSLRLSCAASGNIFVAYPMGWYRKATGKERELVAVISNGGRTYYADSVKGRFTISRDNAKNTVYLQMNSLKPEDTAVYYCATVAHASYGWHNYWGQGTQVTVSS | high polyreactivity
QVQLVESGGGLVQAGGSLRLSCAASGFIFPYAMGWYRQAPGKEREMVAAISSTDGSTYYADSVKGRFTISRDNAKNTVYLQMNSLKPEDTAVYSCNAPFSFARYPSSWHYWDYYYWGQGTQVTVSS | low polyreactivity
QVQLVESGGGLVQAGGSLRLSCAASGRIFVYYAMGWYRQAPGKERELVAAISSSGGSTYYADSVKGRFTISRDNAKNTVYLQMNSLKPEDTAVYYCNAVTYFSLSYPRHDYWGQGTQVTVSS | high polyreactivity
QVQLVESGGGLVQAGGSLRLSCAASGRIFTPYVMGWYRQAPGKERELVADINLSGDSTSYADSVKGRFTISRDNAKNTVYLQMNSLKPEDTAVYYCNADSYIYVGNDQYDYWGQGTQVTVSS | low polyreactivity
QVQLVESGGGLVQAGGSLRLTCAASGFIFTYPNAKGWNIQAPGKERELVAAISWRGGGTYYADSVKGRFTISRDNAKNTVYLQMNSLKPEDTAVYYCADYVPAPRRTYNYWGQGTQVTVSS | high polyreactivity
QVQLVESGGGLVQAGGSLRLSCAASGRTFRGYAMGWYRQAPGKEREFVAAITWTSGSTYYADSVKGRFTISRDNAKNTVYLQMNSLKPEDTAVYYCAARVYSQALRLWGNNYWGQGTQVTVSS | high polyreactivity

Sequence | polyreactivity (PSR sort gate)
QVQLVDSGGGLVQAGGSLRLSCAASGFIIGYNAMGWYRQAPGKEREFVAAISYNGGSTRYADSVKGRFTISRDNAKNTVYLQMNSLKPEDTAVYYCAAQKARVYRGAWTRYEYWGQGTQVTVSS | high polyreactivity
QVQLVESGGGLVQAGGSLRLSCAASGRNFYYNAMGWYRQAPGKERELVASITGSGGSTYYADSVKGRFTISRDNAKNTVYLQMNSLKPEDTAVYYCAKREYLYPYYYVAKYDYWGQGTQVTVSS | low polyreactivity
QVQLVESGGGLVQAGCSLRLSCAASGRIFDGNAMGWYRQAPGKERELVAAISWTGGSTYYADSVKGRFTISRDNAKNTVYLQMNSLKPEDTAVYYCAADSGWWLEQWSWYDYWGQGTQVTVSS | low polyreactivity
QVQLVESGGGLVQAGGSLRLSCAASGITFVQYAMGWYRQAPGKERELVAAIRRGGSTSYADSVKGRFTISRDNAKNTVYLQMNSLKPEDTAVYYCARRYDWPITPLDVEYWGQGTQVTVSS | low polyreactivity
QVQLVESGGGLVQAGGSLRLSCAASGRIFPRYAMGWYRQAPGKERELVAAITTGGSTYADSVKGRFTISRDNAKNTVYLQMNSLKPEDTAVYYCAKRDSNKRDYWGQGTQVTVSS | low polyreactivity
QVQLVESGGGLVQAGGSLRLSCAASGLTFDTYAMGWYRQAPGKERELVAAISIGGRTNYADSVKGRFTISRDNAKNTVYLQMNSLKPEDTAVYYCAVGAVVPGRRRRTYYYWGQGTQVTVSS | high polyreactivity
QVQLVESGGGLVQAGGSLRLSCAASGSIFYAYAMGWYRQAPGKERELVATISSVGSTYYADSVKGRFTISRDNAKNTVYLQMNSLKPEDTAVYYCAKQRIVVYKTGYDYWGQGTQVTVSS | low polyreactivity
QVQLVESGGGLVQAGGSLRLSCAASGRTFGEYTMGWYRQAPGKERELVAAISSAGRTNYADSVKGRFTISRDNAKNTVYLQMNSLKPEDTAVYYCAADWTDDVPGYDYWGQGTQVTVSS | low polyreactivity
QVQLVESGGGLVQAGGSLRLSCDASGFIFKGNAMGWYRHAPRKERELVAAITNRGGGTYYADSVKGRFTISRDNAKNTVYLQMNSLKPEDTAVYYCAKAYTRPFHPYDYWGQGTQVTVSS | high polyreactivity
QVQLVESGGGLVQAGGSLRLSCAASGSIFADYAMGWYRQAPGKERELVAAITASGGTTYYADSVKGRFTISRDNAKNTVYVQMNSLKPEDTAVYYCNAGNRTFLYDRDDYWGQGTQVSVSS | high polyreactivity
QVQLVESGGGLVQAGGTLRLSCAASGITFVQYAMGWYRQAPGKETELVASITRRGGSTYYADSVKGRFTISRDNAKNTVYLQMNSLKQEDTAVYYCAARWSAWRGYIFDYWGQGTQVTVSS | high polyreactivity
QVQLVESGGGLVQAGGSLRLSCAASGRIFRYNAMGWYRQAPGKERELVAAISTSGTRTFYADSVKGRFTISRDNAKNTVYLQMNSLKPEDTAVYYCNKVAGPGKLGTYYYWGQGTQVTVSS | high polyreactivity
QVQLVESGGGVVQAGGSLRLSCAASGRIIPYYAMGWYRPAPGTERELVAAISWTDGTTFYADSVKGRFTISRDNAKNTVYLQMNSLKPEDTAVYYCAASVYQDKGYDYWGQGTQVTVSS | low polyreactivity
QFQLVESGGGLVQAGGSLRLSCAASGLTFSWYVMGWYRQAPGKERELVAAITNGGNTNYADSVKGRFTISRDNAKNTVYLQMNCLKPEDTAVYYCAARDPYTWPRSGSGYYEFDYWVQGTQVTVSS | low polyreactivity
QVQLVESGGGLVQAGGSLRLSSAASGFISPSYALGWYRPAPGTERELDAAIRSSDGSTYYADSVKGRFTISRDTAMNSVYLQMNSLKPEDTAVYYCAGGGSYYRDDYWGQGTQVTVSS | low polyreactivity
QVQLVEAGGGLVQAGGSLRLSGAASGRTFSLYAMGWYRQAPGKERELVAAITVSGGSTYYADSVKGRFTISRDNAKNTVYLQMNSLKPEDTAVYYCAAEGQPFRYYLLDYWGQGTQVTVSS | low polyreactivity
QVQLVESGGCLVQAGGSLRLSCAASGRIFTTNAMGWYRQAPGKERELVAAITYSGGTTYYADSVKGRFTISRDNAKKTVYLQMNSLKPEDTAVYYCAADVKFSTPYDYWGQGTQVTVSS | low polyreactivity
QVQLVESGGGLVQAGGSLRLSCGASGLTFPLYAMGWYRQAPGKERELVAAITFSSGSTRYADSVKGRFTISRDNAKNTGSFQMNSLKPEDTALYYCAAVWYTYRTGPWYDYWGQGTQVTVSS | high polyreactivity
QVQLQESGGGLVQAGGSLRLSCAASGYISHADEMGWYRQAPGLEHELVASISNGGSTNYADSVKGLFTISRDNAKNTEYLQLNSLKSEDTAVYYCAAWTGQVDIHYYWGQGTQVTVSS | low polyreactivity
QVQHVESGGGLVQAGGSLRLSCAASGIIFLFYAMGWYRQARGKERELVAAITGAGSTNYADSVKGRFTISRDNAKNTVYLQMNRLKPEDTAVYYCAARHYARYDYWGQGTQVTVSS | low polyreactivity
QVQLVESGGGLVQAGGSLRLSCAASGSIYTNAMGWYRQAPGKERELVAAISWSGGRTYYADSVKGRFTISRDNAKNTVYLQMNSLKPEDTAVYYCAADYYYSQVAYDYWGQGTQVTVSS | high polyreactivity
